Experiments:
[1] = molecular target: human CD16B-NA1 expressed on CHO-K1 cells (human) (UniProt O75015); assay: flow cytometry, CHO-K1-hCD16B-NA1 cells, geometric mean
[2] = molecular target: human CD32B expressed on CHO-K1 cells (human) (UniProt P31994); assay: flow cytometry, CHO-K1-hCD32B cells, geometric mean
Sequence of human CD32B expressed on CHO-K1 cells (human) (P31994 43-310): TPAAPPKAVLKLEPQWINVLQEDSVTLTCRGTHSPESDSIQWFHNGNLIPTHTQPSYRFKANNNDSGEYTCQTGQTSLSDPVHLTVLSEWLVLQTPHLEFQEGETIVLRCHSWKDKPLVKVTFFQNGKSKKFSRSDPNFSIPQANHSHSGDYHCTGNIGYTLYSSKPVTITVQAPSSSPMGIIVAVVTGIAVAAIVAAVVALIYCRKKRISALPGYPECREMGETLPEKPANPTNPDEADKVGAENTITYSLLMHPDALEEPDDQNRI

Sequence of human CD16B-NA1 expressed on CHO-K1 cells (human) (O75015 other isoform, or with tags, fused parts or gaps): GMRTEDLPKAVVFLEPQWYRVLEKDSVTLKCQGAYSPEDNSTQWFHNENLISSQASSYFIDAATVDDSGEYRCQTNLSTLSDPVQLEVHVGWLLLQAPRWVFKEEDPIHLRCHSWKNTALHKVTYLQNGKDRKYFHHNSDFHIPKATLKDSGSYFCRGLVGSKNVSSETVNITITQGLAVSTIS

| Substance | EC50 (read off the curve) [1] | EC50 (read off the curve) [2] |
| --- | --- | --- |
| 3G8-mIgG2aLALAPG (antibody) | 0.1 to 1 nM | – |
| Positive control (3G8) (antibody) | 0.1 nM | – |
| Positive control (6G11) (antibody) | – | 0.1 nM |
